Results as given in publication PMC3214078, “The PHD Finger of Human UHRF1 Reveals a New Subgroup of Unmethylated Histone H3 Tail Readers” (PLoS ONE, 2011).
Positions count from the first letter of the chain named. Names and notes keep the numbering of the source. One block for each binder: values may come before it. Where no end group is shown, it is not given here. Me3 = trimethyl-lysine

Assays:
Details in all cases: both partners purified
[1] = target: T1, huUHRF1-PHD(296–367), PHD finger of human UHRF1 with the additional N-terminal zinc finger (human, UniProt Q96T88 296-367); assay: crystal structure; huUHRF1-PHD(296–367) at 606 µM with a 10-fold excess of H3 peptide (1–8); vapor diffusion at 17°C, 0.1 M Tris pH 8.5, 0.2 M MgCl2, 30% PEG 4000; 1.95 Å
T1 construct: Vector pHGGWA (Gateway); also called ICBP90 PHD finger
T1 sequence (looked up): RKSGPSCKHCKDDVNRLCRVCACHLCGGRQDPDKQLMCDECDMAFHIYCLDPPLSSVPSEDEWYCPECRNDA

[2] = target: T2, huUHRF1-PHD(296–367) D334A (human, UniProt Q96T88 296-367, D334A); assay: ITC; 20°C; histone peptides (1–12Y, 1.5–2 mM) injected into huUHRF1-PHD (0.12–0.18 mM); 20 mM Tris pH 7, 150 mM NaCl, 0.5 mM TCEP, 25 µM ZnCl2, 0.1 mM PMSF
T2 sequence (looked up): T1 sequence (looked up) with D39A

[3] = target: T3, huUHRF1-PHD(296–367) D337A (human, UniProt Q96T88 296-367, D337A); assay: as above
T3 sequence (looked up): T1 sequence (looked up) with D42A

[4] = target: T1, huUHRF1-PHD(296–367), PHD finger of …; assay: as above

B1: short histone H3 peptide including residues 1–8, unmodified (peptide, UniProt P68431 2-9, looked up)
peptide: ARTKQTAR
notes: histone H3 N-terminal tail, residues 1-8 (five of the eight seen in the map); also called unmodified histone H3 peptide; histone H3 tail
binding result [1]: binds

B2: histone H3 peptide (1–12Y), unmodified (peptide)
peptide: ARTKQTARKSTGY
notes: histone H3 N-terminal tail, residues 1-12; tyrosine after residue 12, read from the label '1–12Y'; also called unmodified H3; H3K4me0
Kd [2]: > 500 µM
Kd [3]: ~70 µM
Kd [4]: 7.9 µM
dH [4]: -17.6 kcal/mol

More lines, in order of falling Kd [4], values ahead:

Kd [4]: 25.9 µM
dH [4]: -11.6 kcal/mol
B4: histone H3 peptide (1–12Y) with trimethylated K4 (peptide)
peptide: ARTK(Me3)QTARKSTGY
notes: histone H3 N-terminal tail, residues 1-12; tyrosine after residue 12, read from the label '1–12Y'; also called H3K4me3

Kd [4]: 17 µM
dH [4]: -14.1 kcal/mol
B3: histone H3 peptide (1–12Y) with K4 mutated to alanine (peptide)
peptide: ARTAQTARKSTGY
notes: histone H3 N-terminal tail, residues 1-12 with K4A; tyrosine after residue 12, read from the label '1–12Y'; also called H3K4A
